The values below are quoted from earlier work in PMC8281132.

The data set deals with CD155 (Homo sapiens) (UniProt P15151).
UniProt P15151, sequence (P15151 21-343): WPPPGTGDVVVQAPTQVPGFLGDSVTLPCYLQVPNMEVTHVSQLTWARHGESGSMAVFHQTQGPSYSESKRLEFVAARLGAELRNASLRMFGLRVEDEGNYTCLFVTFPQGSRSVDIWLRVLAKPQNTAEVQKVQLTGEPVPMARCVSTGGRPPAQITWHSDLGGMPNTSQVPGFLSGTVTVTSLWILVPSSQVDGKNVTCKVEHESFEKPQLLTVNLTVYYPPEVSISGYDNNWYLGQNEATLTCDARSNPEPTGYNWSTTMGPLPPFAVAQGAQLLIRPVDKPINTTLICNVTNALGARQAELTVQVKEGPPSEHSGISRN

Turning to TIGIT (from UniProt Q495A1), the Kd is 2 nM.
